Laboratory results published in paper PMC12495856.

Key:
[1] = target: SARS-CoV-2 PLpro TR (truncated form lacking the Ubl domain) (SARS-CoV-2)
[2] = target: SARS-CoV-2 papain-like protease (PLpro) wild type (SARS-CoV-2)

## human ISG15 (interferon-stimulated gene product 15) (from UniProt P05161 1-157) (natural protein)
[1]
  IC50 of free ISG15 for inhibition of ISG15-AMC cleavage: 2050 nM
  IC50 of free ISG15 for inhibition of Ub-AMC cleavage: 1060 nM
[2]
  IC50 of free ISG15 for inhibition of ISG15-AMC cleavage: 2050 nM
  IC50 of free ISG15 for inhibition of Ub-AMC cleavage: 1590 nM
